Experimental data taken from patent US11230581B2, “Peptides and combination of peptides for use in immunotherapy against ovarian cancer and other cancers” (Immatics Biotechnologies GmbH, priority 2015, dated 2022).

target: HLA-A*02:01 (Homo sapiens, UniProt P04439, D140Y/D185E/D98H/E176V/E277Q/G131W/G231S/I119V/I121R/I166T/I218V/L300P/L318F/N151K/N90K/P208A/P217A/Q86G/Q94H/R138H/R169H/T345S); test: MHC binding assay (UV-ligand exchange, β2m ELISA, peptide exchange yield); details: binding of HLA-class I restricted peptides to HLA-A*02:01, UV-ligand exchange
Procedure, shortened: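 Peptide-MHC complexes formed by UV-ligand exchange, cleaving a UV-sensitive placeholder peptide in favour of the test peptide. Exchange yield measured by ELISA: monomers diluted 100-fold onto streptavidin-coated plates, 1 h 37 °C, detected with 2 ug/ml HRP anti-β2m and TMB, absorbance at 450 nm.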

Row | Substance | Peptide exchange (MHC class I binding score, peptide exchange yield)
1 | 248 (FLFPNQYVDV; listed as Homo sapiens) [compound 248] | “+++” (≥50 = +++)
2 | 249 (LLDGFLVNV; listed as Homo sapiens) [compound 249] | “+++” (≥50 = +++)
3 | 250 (ALSEEGLLVYL; listed as Homo sapiens) [compound 250] | “+++” (≥50 = +++)
4 | 251 (ALYTGFSILV; listed as Homo sapiens) [compound 251] | “++” (≥20% = ++)
5 | 253 (GLDAATATV; listed as Homo sapiens) [compound 253] | “++” (≥20% = ++)
6 | 254 (TLLAFIMEL; listed as Homo sapiens) [compound 254] | “+++” (≥50 = +++)
7 | 255 (VLASYNLTV; listed as Homo sapiens) [compound 255] | “+++” (≥50 = +++)
8 | 257 (SIFSAFLSV; listed as Homo sapiens) [compound 257] | “+++” (≥50 = +++)
9 | 258 (ELAERVPAI; listed as Homo sapiens) [compound 258] | “++” (≥20% = ++)
10 | 261 (YVLEFLEEI; listed as Homo sapiens) [compound 261] | “++” (≥20% = ++)
11 | 262 (LLWGDLIWL; listed as Homo sapiens) [compound 262] | “+++” (≥50 = +++)
12 | 263 (LLVSNLDFGV; listed as Homo sapiens) [compound 263] | “+++” (≥50 = +++)
13 | 264 (SLQEQLHSV; listed as Homo sapiens) [compound 264] | “+++” (≥50 = +++)
14 | 265 (LLFGGTKTV; listed as Homo sapiens) [compound 265] | “++” (≥20% = ++)
15 | 266 (KITDTLIHL; listed as Homo sapiens) [compound 266] | “+++” (≥50 = +++)
16 | 267 (ALQDFLLSV; listed as Homo sapiens) [compound 267] | “+++” (≥50 = +++)
17 | 269 (RVLEVGALQAV; listed as Homo sapiens) [compound 269] | “++” (≥20% = ++)
18 | 273 (NLFQSVREV; listed as Homo sapiens) [compound 273] | “++” (≥20% = ++)
19 | 274 (SLLFSLFEA; listed as Homo sapiens) [compound 274] | “++” (≥20% = ++)
20 | 276 (ALFTFSPLTV; listed as Homo sapiens) [compound 276] | “+++” (≥50 = +++)
21 | 277 (LLPPLESLATV; listed as Homo sapiens) [compound 277] | “++” (≥20% = ++)
22 | 278 (QLLDVVLTI; listed as Homo sapiens) [compound 278] | “++” (≥20% = ++)
23 | 280 (VLPDPEVLEAV; listed as Homo sapiens) [compound 280] | “+++” (≥50 = +++)

Row | Substance | Peptide exchange (MHC class I binding score, peptide exchange yield)
24 | 281 (ILRESTEEL; listed as Homo sapiens) [compound 281] | “+++” (≥50 = +++)
25 | 283 (ALYIGDGYVIHLA; listed as Homo sapiens) [compound 283] | “+++” (≥50 = +++)
26 | 285 (QLLHVGVTV; listed as Homo sapiens) [compound 285] | “+++” (≥50 = +++)
27 | 289 (VLLEIEDLQV; listed as Homo sapiens) [compound 289] | “++++” (≥75% = ++++)
28 | 295 (VLDRESPNV; listed as Homo sapiens) [compound 295] | “+++” (≥50 = +++)
29 | 296 (FMEGAIIYV; listed as Homo sapiens) [compound 296] | “+++” (≥50 = +++)
30 | 298 (VMITKLVEV; listed as Homo sapiens) [compound 298] | “+++” (≥50 = +++)
31 | 299 (YLLETSGNL; listed as Homo sapiens) [compound 299] | “+++” (≥50 = +++)
32 | 300 (ALLGQTFSL; listed as Homo sapiens) [compound 300] | “+++” (≥50 = +++)
33 | 301 (FLVEDLVDSL; listed as Homo sapiens) [compound 301] | “+++” (≥50 = +++)
34 | 302 (ALLQEGEVYSA; listed as Homo sapiens) [compound 302] | “+++” (≥50 = +++)
35 | 303 (AILPQLFMV; listed as Homo sapiens) [compound 303] | “++++” (≥75% = ++++)
36 | 304 (MTLGQIYYL; listed as Homo sapiens) [compound 304] | “+++” (≥50 = +++)
37 | 306 (ALVNVQIPL; listed as Homo sapiens) [compound 306] | “+++” (≥50 = +++)
38 | 307 (ALPVSLPQI; listed as Homo sapiens) [compound 307] | “+++” (≥50 = +++)
39 | 308 (SQYSGQLHEV; listed as Homo sapiens) [compound 308] | “+++” (≥50 = +++)
40 | 309 (GLFDGVPTTA; listed as Homo sapiens) [compound 309] | “+++” (≥50 = +++)
41 | 310 (FLVDTPLARA; listed as Homo sapiens) [compound 310] | “++++” (≥75% = ++++)
42 | 311 (RLYTGMHTV; listed as Homo sapiens) [compound 311] | “+++” (≥50 = +++)
43 | 313 (VLFDDELLMV; listed as Homo sapiens) [compound 313] | “+++” (≥50 = +++)
44 | 315 (YLQDVVEQA; listed as Homo sapiens) [compound 315] | “+++” (≥50 = +++)
45 | 317 (SLAALVVHV; listed as Homo sapiens) [compound 317] | “+++” (≥50 = +++)
46 | 319 (SLEPQIQPV; listed as Homo sapiens) [compound 319] | “++” (≥20% = ++)

Now from value to substance:

Row | Peptide exchange (MHC class I binding score, peptide exchange yield) | Substance
47 | “+++” (≥50 = +++) | 252 (LLIGTDVSL; listed as Homo sapiens) [compound 252]
48 | “+++” (≥50 = +++) | 256 (FLPPEHTIVYI; listed as Homo sapiens) [compound 256]
49 | “++” (≥20% = ++) | 270 (LLLDEEGTFSL; listed as Homo sapiens) [compound 270]
50 | “+++” (≥50 = +++) | 271 (LVYPLELYPA; listed as Homo sapiens) [compound 271]
51 | “+++” (≥50 = +++) | 272 (ALGNTVPAV; listed as Homo sapiens) [compound 272]
52 | “++” (≥20% = ++) | 275 (YLVYILNEL; listed as Homo sapiens) [compound 275]
53 | “++” (≥20% = ++) | 279 (ALWGGTQPLL; listed as Homo sapiens) [compound 279]
54 | “+++” (≥50 = +++) | 282 (LLADVVPTT; listed as Homo sapiens) [compound 282]
55 | “+++” (≥50 = +++) | 284 (ILLSQTTGV; listed as Homo sapiens) [compound 284]
56 | “+++” (≥50 = +++) | 286 (YLFPGIPEL; listed as Homo sapiens) [compound 286]
57 | “+++” (≥50 = +++) | 287 (FLNEFFLNV; listed as Homo sapiens) [compound 287]
58 | “+++” (≥50 = +++) | 288 (NLINEINGV; listed as Homo sapiens) [compound 288]
59 | “+++” (≥50 = +++) | 297 (VLADIELAQA; listed as Homo sapiens) [compound 297]
60 | “++++” (≥75% = ++++) | 305 (SIANFSEFYV; listed as Homo sapiens) [compound 305]
61 | “+++” (≥50 = +++) | 312 (IISDLTIAL; listed as Homo sapiens) [compound 312]
62 | “+++” (≥50 = +++) | 314 (ALIAEGIALV; listed as Homo sapiens) [compound 314]
63 | “+++” (≥50 = +++) | 316 (ILLERLWYV; listed as Homo sapiens) [compound 316]
64 | “++” (≥20% = ++) | 318 (GLINTGVLSV; listed as Homo sapiens) [compound 318]
65 | “++++” (≥75% = ++++) | 320 (KMFEFVEPLL; listed as Homo sapiens) [compound 320]
66 | “++++” (≥75% = ++++) | 321 (GLFEDVTQPGILL; listed as Homo sapiens) [compound 321]
